According to patent US20220387441A1, “TARGETING THE NEUROLIGIN-3 BINDING PARTNER CSPG4 IN GLIOMA” (The Board of Trustees of the Leland Stanford Junior …, priority 2021, published 2022):

Key:
[1] = tested on: DIPG13p xenografts; assay: DIPG13p xenograft survival; type: in vivo; conditions: 30 mg/kg oral gavage daily (5 days on/2 days off) until death, DIPG 13p cells in pons of NSG mice
From the text: Blockade of CSPG4 RIP via gamma secretase inhibition attenuates glioma growth. Given that CSPG4 is the largest and most structurally complex member of the surfaceome with several validated binding partners and numerous reported functions, we sought to disrupt signaling events downstream of CSPG4 RIP. To that end, we xenografted human glioma cells into pons of immune-deficient mice and treated them with gamma secretase inhibitor to prevent CSPG4 RIP. The treatment of murine OPCs with a gamma secretase inhibitor accelerated their differentiation in vitro as assessed by MBP staining and in line with reports from others.
Treatment was continued daily (5 days on/2 days off) until death with mice receiving 30 mg/kg of gamma secretase inhibitor or matched vehicle by oral gavage.

[2] = tested on: CSPG4 shedding from glioma cells (DIPG neurospheres 13pons, 21); assay: CSPG4 Release Assay (western blot of conditioned medium); type: cell-based, human
From the text: (§1) Here, we provide evidence that both NLGN3 and CSPG4 ectodomains are in fact cleaved in response to neuronal activity, but that these events are separated in space and time. NLGN3 undergoes ADAM-mediated cleavage in response to glutamate-mediated depolarization, freeing the NLGN3 ectodomain to bind the LNS domains of CSPG4 and induce its subsequent cleavage from the membrane (FIG. 2A). High-grade glioma cells constitutively shed proteins such as CSPG4 and NLGN3 into their culture medium. […] These proteins represent cleaved ectodomains, given their failure to react with a C-terminal CSPG4 antibody (FIG. 2B). We also note that these proteins appear as smears by western blot in large part due to the effects of chondroitin sulfate as treatment of conditioned medium with Chondroitinase ABC collapses these smears into sharp bands (FIG. 2B).
CSPG4 Release Assay: DIPG neurospheres (13pons, 21) were cultured in defined medium (1:1 Neurobasal and DMEM F12, 1× Glutamax, 1× pen/strep, 1×MEM NEAA, 1× sodium pyruvate, 1×HEPES, 1×B-27 (w/o vit A) supplement, heparin, EGF, FGF, PDGF-AA, PDGF-BB) at 37C, 5% CO2. Cells were pelleted at 250G×5 min, medium aspirated, and washed in HBSS w/o calcium and magnesium. […] Dissociated and washed cells were resuspended in HBSS plus Ca+/Mg+ and counted. […]

[3] = target: T1, CTLA4 (Homo sapiens, UniProt P16410); conditions: cited from earlier work
T1 construct: CTLA4 is expressed exclusively on T cells; host or cells: patients' T cells (endogenous)
T1 sequence (P16410 36-223): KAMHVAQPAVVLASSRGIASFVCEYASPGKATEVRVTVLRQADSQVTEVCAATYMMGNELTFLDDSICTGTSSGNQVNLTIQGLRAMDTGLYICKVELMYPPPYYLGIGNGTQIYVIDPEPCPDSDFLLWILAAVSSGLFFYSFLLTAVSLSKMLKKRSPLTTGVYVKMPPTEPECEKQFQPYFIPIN

[4] = tested on: DIPG6 xenografts; assay: DIPG6 xenograft survival; type: in vivo; conditions: 40 mg/kg IP, 5 days with 2 days of rest, P130 through P158, DIPG6 cells in cortices of NSG mice
Procedure: Dosing of 40 mg/kg was administered via IP injection for 5 days with 2 days of rest in between cycles. Mice were then followed until death.

[5] = tested on: primary mouse OPCs; assay: AN2 shedding from primary mouse OPCs; type: cell-based; conditions: primary mouse OPCs incubated with human sNLGN3
From the text: as §1

[6] = tested on: mouse-derived optic pathway glioma cells; assay: AN2 shedding from mouse-derived optic pathway glioma cells; type: cell-based; conditions: mouse-derived optic pathway glioma cells incubated with human sNLGN3
From the text: as §1

## CC(C)(C(=O)NCC(F)(F)C(F)(F)F)C(=O)N[C@@H]1C(=O)Nc2ccccc2-c2ccccc21 [RO4929097]
[1]
  mouse survival: extends mouse survival

## CNC(=O)[C@@H](NC(=O)[C@H](CCCc1ccccc1)[C@H](C)N(O)C=O)C(C)(C)C [G1254023X]
[2]; pre-treatment of glioma cells with ADAM10i, 4 uM, 15 minutes
  shedding of CSPG4 into culture medium (baseline ADAM-mediated cleavage): prevents shedding

## Tremelimumab: fully humanized CTLA4 antibody
[3]; 10 mg/kg monthly regimen versus 15 mg/kg every 3 months, randomized clinical trial
  toxicity: doubled
[3]; at one month
  sustained plasma level in patients with the majority of responses: > 30 µg/mL
[3]; single antibody infusion, doses 0.01 mg/kg to 15 mg/kg, patients
  dose at which objective responses were evident: ≥ 3 mg/kg

## COC(=O)N1CC2(CC2)C[C@H](C(=O)NO)[C@H]1C(=O)N1CC=C(c2ccccc2)CC1 [Aderbasib]
[4]
  mouse survival: extends mouse survival

B1: recombinant NLGN3 ectodomains: recombinant human NLGN3 ectodomain, produced in house (protein, UniProt Q9NZ94 38-709, looked up)
extracellular domain: QAPAPTVNTHFGKLRGARVPLPSEILGPVDQYLGVPYAAPPIGEKRFLPPEPPPSWSGIRNATHFPPVCPQNIHTAVPEVMLPVWFTANLDIVATYIQEPNEDCLYLNVYVPTEDVKRISKECARKPNKKICRKGGSGAKKQGEDLADNDGDEDEDIRDSGAKPVMVYIHGGSYMEGTGNMIDGSILASYGNVIVITLNYRVGVLGFLSTGDQAAKGNYGLLDQIQALRWVSENIAFFGGDPRRITVFGSGIGASCVSLLTLSHHSEGLFQRAIIQSGSALSSWAVNYQPVKYTSLLADKVGCNVLDTVDMVDCLRQKSAKELVEQDIQPARYHVAFGPVIDGDVIPDDPEILMEQGEFLNYDIMLGVNQGEGLKFVEGVVDPEDGVSGTDFDYSVSNFVDNLYGYPEGKDTLRETIKFMYTDWADRDNPETRRKTLVALFTDHQWVEPSVVTADLHARYGSPTYFYAFYHHCQSLMKPAWSDAAHGDEVPYVFGVPMVGPTDLFPCNFSKNDVMLSAVVMTYWTNFAKTGDPNKPVPQDTKFIHTKANRFEEVAWSKYNPRDQLYLHIGLKPRVRDHYRATKVAFWKHLVPHLYNLHDMFHYTSTTTKVPPPDTTHSSHITRRPNGKTWSTKRPAISPAYSNENAQGSWNGDQDAGPLLVENPRDYSTELS
modifications: extracellular domain
notes: recombinant human NLGN3 ectodomain, produced in house
[2]; glioma cells exposed to 100 nM recombinant human NLGN3 ectodomain, 1 hour
  ADAM-mediated CSPG4 cleavage: augments this ADAM-mediated CSGP4 cleavage
[5]
  shedding of murine AN2: augment the shedding of murine AN2
[6]
  shedding of murine AN2: augment the shedding of murine AN2
